Drawing on the supplement of paper PMC10126150, this text covers switch fluorescence ratio for 120 sequences.

± gives the standard deviation of the averaged measurements.

The series relates to ATP. Kind of series: switch fluorescence ratio, 500 uM ATP over buffer (Cy3 cluster intensity, sum of 5 cycles each) (fold (ratio)); higher = stronger signal-on switching upon ATP binding; sequences stand for … in TCGTCGGCAGCGTCAGATGTGTATAAGAGACAGTTTTTTTTTTTTTTTTTTTTTTTTT…TC. Particulars: aptamer strand: ATP DNA aptamer (quencher-CACCTGGGGGAGTATTGCGGAGGAAGG + anchor), 100 nM annealed; ATP concentration: 500 uM. The method in brief: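 Cy3-labelled switching-strand clusters on a modified Illumina MiSeq flow-cell were annealed to 100 nM quencher-labelled ATP aptamer and imaged first in selection buffer, then after 15 min with 500 uM ATP at 22 °C. NaOH stripping and re-annealing separated each of five buffer/ATP cycles, and clusters outside 100-1000 RFU were excluded. The fluorescence ratio sums target-cycle Cy3 intensity over buffer-cycle Cy3 intensity per cluster and averages it per switch-domain sequence.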
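Note: ATP exposure 15 min at 22 °C before imaging.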

Turning to GGGCTTTTTC, the switch fluorescence ratio is 1.02 ± 0.034.
In the case of CGGGGGCGCG it was 1.02 ± 0.021; in that of ATGGTTCAAT, 0.987 ± 0.029.
As for TGATGGATGA, the switch fluorescence ratio stood at 1.01 ± 0.02.
Regarding ATTGGAGGCT, the switch fluorescence ratio turned out to be 0.971 ± 0.075.
Next, GAGGGCGGCG: 1.01 ± 0.11.
As for AACCATTAGG, the switch fluorescence ratio was 0.9956 ± 0.0053.
In the case of TGTTTAATTC, the switch fluorescence ratio is 1.3 ± 0.39.
Next, TTTGAGGCCA: 1.04 ± 0.061; CGGTTGGGGA: 0.985 ± 0.036; CGAAGGGTTA: 0.971 ± 0.027.
In the case of AATATCATAC it was 1.05 ± 0.021.
Next, AGGCTGGGGG: 0.996 ± 0.013; ATTCCTCAGC: 2.39 ± 0.49; TTTGGGGGGA: 1.05 ± 0.21.
For GTGAGAATGT, the switch fluorescence ratio turned out to be 1.02 ± 0.02.
In the case of CGAATTCCGG it was 1.01 ± 0.084; in that of CACGAGTTGG, 1.014 ± 0.0049.
Next, GGGGTGTTGG: 1.01 ± 0.019; GGTTTACGGA: 0.964 ± 0.01.
In the case of TGCGTGGGGA it was 1.04 ± 0.0057.
Regarding GGGATCATGG, the switch fluorescence ratio amounted to 1.08 ± 0.083.
In the case of CCAGCGTGCT it was 1.11 ± 0.08; in that of CGCAAGTATG, 1.26 ± 0.036; in that of GTTTGCCATG, 0.998 ± 0.047.
In the case of CCTAGTACCT it was 1.19 ± 0.05; in that of TAGTTTTGGG, 0.9807 ± 0.0026.
In the case of GGATTAATG it was 1.1 ± 0.12; in that of CTTGTGGCGT, 1 ± 0.049; in that of GATTCAGGAC, 1.04 ± 0.012.
Turning to CTAAGGTTGG, the switch fluorescence ratio turned out to be 0.974 ± 0.034.
In the case of AATTTAGGTC it was 0.934 ± 0.028; in that of AGGGTTTACG, 1.05 ± 0.045; in that of CGTGCGGGAA, 1.004 ± 0.0069.
In the case of TAGACGTAGG it was 1.03 ± 0.028; in that of AGTTTATGCA, 1 ± 0.017.
Take CGAGGGTCCG: the switch fluorescence ratio was 0.99899 ± 0.00035.
In the case of GTTTCGGTGG it was 0.986 ± 0.085; in that of CATGGTAAAT, 0.984 ± 0.018; in that of TCGGAATTTT, 1.03 ± 0.026.
Next, TCGGCTGCGT: 1.03 ± 0.018.
Next, AGGTCTTGGG: 0.972 ± 0.027; AAGGGTCTCG: 1.03 ± 0.095.
Consider TTATGGGTAA, for which the switch fluorescence ratio turned out to be 1.03 ± 0.034.
Next, CGTATGGGTG: 1.02 ± 0.04; ACGAGGGTTG: 1.01 ± 0.026; TTTAGAATTT: 1.01 ± 0.019.
As to ATTTTGGCAG, the switch fluorescence ratio was 0.99 ± 0.049.
For the sequence CGTTTGTCAG, the switch fluorescence ratio was 0.965 ± 0.033.
Regarding TAGGTAGTTT, the switch fluorescence ratio was 0.969 ± 0.032.
In the case of GGGGAAGCCA it was 0.979 ± 0.024.
In the case of AGACGCCAAG it was 1.01 ± 0.029; in that of ACCCGACGAG, 1.03 ± 0.039.
For GTTGGGGGAT, the switch fluorescence ratio amounted to 0.986 ± 0.038.
Next, GAGTCGGTGG: 1.4 ± 0.63; TTGTTGGAAT: 1 ± 0.019.
In the case of TGTGTGAAAA it was 1 ± 0.032.
Consider ACGCTAAATA, for which the switch fluorescence ratio worked out at 1.26 ± 0.03.
In the case of GGGGTGCGCG it was 0.968 ± 0.025.
Next, CATATCCCCT: 1.03 ± 0.045; GGCGAGTATG: 0.9522 ± 0.0037; AAGGCAGATC: 1.05 ± 0.037.
Take TATATTTAGT: the switch fluorescence ratio was determined as 0.973 ± 0.028.
In the case of CCGTGCAGTT it was 2.12 ± 0.82; in that of GCGTATTATT, 1.001 ± 0.0043; in that of CTGAGGGTAT, 1.006 ± 0.0098.
Take TCAGGTTAGG: the switch fluorescence ratio was found to be 1.008 ± 0.0065.
Next, AAGGAGAATA: 1.03 ± 0.012; GAGATTTTGT: 0.998 ± 0.036; GGTTGGGGGT: 1.01 ± 0.045.
In the case of TAAGATAGTA it was 0.993 ± 0.023.
In the case of GCTGGATTGC it was 0.916 ± 0.048; in that of ACGGGATG, 1.039 ± 0.0044.
Turning to ATGTTGTGCT, the switch fluorescence ratio came to 0.984 ± 0.045.
In the case of GCGGGGGGTC it was 1.06 ± 0.091; in that of TCCATTCATA, 1.01 ± 0.023.
In the case of CTTAGATTCT it was 0.993 ± 0.012.
Next, GGCGAGCTGG: 0.9997 ± 0.0034.
For the sequence TGGGGTACGG, the switch fluorescence ratio was 1.004 ± 0.0064.
Next, TAAAATTAGT: 0.9938 ± 0.0073.
In the case of TTAGTAAAGA it was 1.02 ± 0.013; in that of CATCGTCACG, 1.007 ± 0.0025.
Next, ATGATAGTCG: 0.993 ± 0.013.
In the case of GTAATGTCTT, the switch fluorescence ratio was 0.9797 ± 0.0084.
In the case of GGGAGAGCGG it was 0.9662 ± 0.0095; in that of TACTTTTGGA, 1.02 ± 0.04.
Next, AACGTATGTG: 0.937 ± 0.025; GTTGATTTAT: 0.983 ± 0.024; TTCAGGTTTT: 0.99 ± 0.054.
Next, TATGGTTG: 0.99 ± 0.057; TTAAATTTTG: 1.015 ± 0.0084; ACCCGGCTTC: 1.024 ± 0.0077.
On to CATTGTTAAT, for which the switch fluorescence ratio was determined as 1.01 ± 0.04.
In the case of AAATTTTCGA it was 1.018 ± 0.0088.
In the case of CACGGTACGT it was 1.06 ± 0.022; in that of TCCGGTGTTT, 1.081 ± 0.0036.
In the case of CTATAATGTT it was 0.9949 ± 0.0059.
ATAGGCGTGC: the switch fluorescence ratio worked out at 1 ± 0.011.
Next, TGGGCCAGTT: 0.981 ± 0.035; TCTCCATTTA: 1.04 ± 0.015; ACAAGGAATG: 0.997 ± 0.044.
Next, GCCGATGCGG: 0.988 ± 0.013.
In the case of TGGGAACGAT it was 1.011 ± 0.0034; in that of GAGACATGTT, 0.99 ± 0.065.
AATTGCGTCA: the switch fluorescence ratio came to 0.9608 ± 0.0066.
With GTTAGCGGTT, the switch fluorescence ratio came to 0.9884 ± 0.0034.
On to ACTATGGCGG, for which the switch fluorescence ratio is 1.03 ± 0.032.
In the case of GGTCATGGGG it was 0.978 ± 0.023; in that of AGTACACGTG, 0.993 ± 0.026; in that of TAAGAGGCGC, 0.958 ± 0.077.
Next, AGCTATGTTT: 0.979 ± 0.04; GTGTAAGGGG: 0.9943 ± 0.0094.
Next, ATTAAACCAG: 1.1 ± 0.11; TCTGTCTAGT: 1.01 ± 0.02.
For TAGATTTGTT, the switch fluorescence ratio amounted to 1.01 ± 0.03.
In the case of AGTATGTGCT it was 0.965 ± 0.024.
Next, TATTTAGGTT: 1.006 ± 0.006.
Next, GACACTTGTA: 1.02 ± 0.025.
In the case of TTTTTATTGC, the switch fluorescence ratio came out at 1 ± 0.035.
In the case of GTTTTGATTA it was 0.973 ± 0.017.
